The values below come from US20220195070A1 (Chugai, published 2022).

Assay [1] deals with T1, anti-DENV E protein antibody comprising a modified IgG heavy chain constant region (SEQ ID NO: 116).
T1 construct: also called anti-DENY E protein antibody; Fc-Mutated Antibody
The experiment in a line: SPR (Biacore T200), 25 C, pH 7.4; SKA antibody captured by anti-rabbit IgG, anti-DENV E protein antibody injected 0-400 nM. From the text: (§1) Anti-rabbit IgG was immobilized onto FC 3 and 4 of a CMS sensor chip using an amine coupling kit (GE Healthcare). For the immobilization of anti-rabbit IgG, HBS-EP+, pH7.4 (GE Healthcare) buffer was used as running buffer. After the immobilization, running buffer was changed to phosphate pH7.4 buffer. Each antibody was captured onto FC4 of the sensor chip by anti-rabbit IgG. The amount of Anti Fc-Mutation Antibody to be captured was adjusted so that the number of resonance units (RU) was 100.
A general note: In SPR one partner is held on a chip, and binding of the other changes the refractive index at the surface.

Assay [2] has as its target T1, anti-DENV E protein antibody comprising …. The assay is described as follows: SPR (Biacore T200), 25 C, pH 7.4; SKA antibody captured by anti-rabbit IgG, anti-DENV E protein antibody injected 0-400 nM; *reliability might be low.
Description: as §1

The term Kd denotes the equilibrium constant for the complex coming apart. Low values mean tighter binding, high ones weaker binding. Broadly, the koff is a measure of how fast the partners let go of each other. A low value points to slow dissociation. In general, kon refers to the second-order rate constant of association.

T1 sequence (constant, as listed by the source limits assumed): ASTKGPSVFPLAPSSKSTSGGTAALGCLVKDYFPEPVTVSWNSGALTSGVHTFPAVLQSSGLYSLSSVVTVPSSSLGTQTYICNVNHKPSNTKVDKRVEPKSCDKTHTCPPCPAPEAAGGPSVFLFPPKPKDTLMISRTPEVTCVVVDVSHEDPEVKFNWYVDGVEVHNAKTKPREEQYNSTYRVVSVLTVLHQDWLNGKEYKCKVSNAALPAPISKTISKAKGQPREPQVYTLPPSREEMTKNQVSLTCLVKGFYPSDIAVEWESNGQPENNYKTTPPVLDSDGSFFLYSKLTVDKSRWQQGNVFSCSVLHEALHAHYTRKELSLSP

B1: SKA0171 (antibody, V domains shown)
VH: QSLEESGGGLVQPEGSLTLSCTASGFSFSSSYYMCWVRQAPGKGLEWIACIYGGNSVITYYANWAKGRFTISETSSTTVTLQMTSLTAADTATYFCAREVHYDYLYTTYGYANLWGPGTLVTVSS
VL: AIKMTQTPASVSAVVGGTVTINCQASETIYSGLAWYQQKPGQPPKLLIYDTANLETGVSSRFKGSGSGTEYTLTISDLECDDAATYFCLYAYYSGGSADNAFGGGTEVVVKG
notes: Recombinant rabbit monoclonal from B-cell cloning, expressed in FreeStyle 293-F cells; the first screen used B-cell culture supernatant; also called Anti-SG115 Antibody; rabbit Anti Fc-Mutation Antibody
As to B1, in assay [1], binding was put at a Kd of 1.45 nM, the koff was 0.00149 s⁻¹ and the kon came out at 1.02e+06 M⁻¹ s⁻¹.

B2: SKA0001 (antibody, V domains shown)
VH: QSVEESGGRLVTPGTPLTLTCTVSGFSLSYYAMNWVRQAPGKGLEWIGIIGISGGTYYASWAKGRFTISKSSSTTVDLKMTSPTTEDTATYFCARGGSAWGDLWGQGTLVTVSS
VL: DIVMTQTPSSVSAAVGGTVTINCQASQSISRLLAWYQQKPGQPPKVLMHDASDLASGVPSRFKGSGSGTEYTLTISDLECADAATYYCQSYYWGSSGDIGYPFGGGTEVVVKG
notes: as for B1
Turning to B2, the kon in assay [1] is 44400 M⁻¹ s⁻¹. In assay [2], this molecule showed a Kd of 0.00278 nM and a koff of 1.23e-07 s⁻¹.

B3: SKA0027 (antibody, V domains shown)
VH: QEQLVESGGGLVQPEGSLTLTCTASGFSFSSSDYMCWVRQAPGKGLEWIGCIYTGSGSTYYASWAKGRFTISKTSSTTVTLQMTSLTAADTATFFCARRGDSYSNYSFKLWGPGTLVTVSS
VL: AFELTQTPASVEAAVGGTVTIKCQASQNIYSNLAWYQQKPGQPPKLLIYTASSLASGVSSRFKGSGSGTEFTLTISDLECDDAATYYCQCTYINNGYGNTFGGGTEVVVKG
notes: as for B1
As to B3, in assay [1], the Kd is 1 nM, the koff was determined as 0.000191 s⁻¹ and the kon came out at 190000 M⁻¹ s⁻¹.

B4: SKA0117 (antibody, V domains shown)
VH: QSLEESGGDLVKPEGSLTLTCTASGFSFSSSHYMCWVRQAPGKGLEWIACIYAGSSDNTYYASWAKGRFTISKTSSTTVTLQMTSLTAADTATYFCARDTYGYVGYASAGGFFNLWGPGTLVTVSS
VL: ALVMTQTPASVSAAVGGTVTINCQASHNIYSVLAWYQQKPGQRPRLLIYGASNLESGVPSRFKGSGSGTEYTLTISDLECDDAATYYCQSAYYSSSTGDNAFGGGTEVVVKG
notes: as for B1
In assay [1], B4 gave a kon of 126000 M⁻¹ s⁻¹. In assay [2], this molecule yielded a Kd of 0.000275 nM and a koff of 3.46e-08 s⁻¹.

B5: SKA0141 (antibody, V domains shown)
VH: QSLEESGGDLVKPGASLTLTCTASGFSFSSSYYMCWVRQAPGKGLEWIACIYAGSSGSTYYASWAKGRFTISKTSSTTVTLQMTSLTAADTATYFCARDGDENMLVGGYFNLWGPGTLVTVSS
VL: ALVMTQTPSSVSAAVGGTVTINCQASHNIYSNLAWYQQKPGQRPKLLIYGASNLESGVPSRFKGSGSGTEYTLTISDLECDDAATYYCQSAYYSSNAGYNAFGGGTEVVVKG
notes: as for B1
In assay [1], B5 registered a Kd of 5.04 nM, a koff of 0.00135 s⁻¹ and a kon of 267000 M⁻¹ s⁻¹.

B6: SKA0028 (antibody, V domains shown)
VH: QSVEESGGRLVTPGTPLTLTCTASGFTISSYHMSWVRQAPGKGLEWIGIIHGSGNMWYASWAKGRFTISRTSTTVDLEITSPTTEDTATYFCARIRFWASSNYYYFYLWGQGTLVTVSS
VL: ALVMTQTPASVSEPVGGTVTINCQASQNIYSNLAWYQQKPGQRPRLLIYGASNLESGVPSRFRGSGSGTEFTLTISDLECADAATYYCQSAYWGNNNDGAFGGGTEVVVKG
notes: as for B1
In assay [1], B6 displayed a koff of 7.27e-05 s⁻¹ and a kon of 116000 M⁻¹ s⁻¹. In assay [2], this molecule returned a Kd of 0.626 nM.
